Experimental data published in PMC4216188.

Target: I53A FLAG-Pen-2 (human) (UniProt Q9NZ42)
Test: co-IP

Chain of UniProt Q9NZ42 (Q9NZ42 whole entry I53A): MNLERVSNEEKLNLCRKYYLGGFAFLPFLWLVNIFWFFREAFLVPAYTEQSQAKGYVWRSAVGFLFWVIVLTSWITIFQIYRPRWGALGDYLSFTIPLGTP

For “presenilin 1 C-terminal fragment (PS1-CTF) (domain or fragment)”, the PS1-CTF associated with immunoprecipitated Pen-2, percent of wt was < 40 % of wt.
